This is an account of results in patent US20230183336A1 (MODMAB THERAPEUTICS, published 2023).

In this test the target is T1, recombinant mouse LRP5-His chimera (mouse, UniProt Q91VN0 31-1383).
T1 construct: extracellular domain; also called ECD of mouse LRP5; not shown: His tag
T1 sequence (looked up): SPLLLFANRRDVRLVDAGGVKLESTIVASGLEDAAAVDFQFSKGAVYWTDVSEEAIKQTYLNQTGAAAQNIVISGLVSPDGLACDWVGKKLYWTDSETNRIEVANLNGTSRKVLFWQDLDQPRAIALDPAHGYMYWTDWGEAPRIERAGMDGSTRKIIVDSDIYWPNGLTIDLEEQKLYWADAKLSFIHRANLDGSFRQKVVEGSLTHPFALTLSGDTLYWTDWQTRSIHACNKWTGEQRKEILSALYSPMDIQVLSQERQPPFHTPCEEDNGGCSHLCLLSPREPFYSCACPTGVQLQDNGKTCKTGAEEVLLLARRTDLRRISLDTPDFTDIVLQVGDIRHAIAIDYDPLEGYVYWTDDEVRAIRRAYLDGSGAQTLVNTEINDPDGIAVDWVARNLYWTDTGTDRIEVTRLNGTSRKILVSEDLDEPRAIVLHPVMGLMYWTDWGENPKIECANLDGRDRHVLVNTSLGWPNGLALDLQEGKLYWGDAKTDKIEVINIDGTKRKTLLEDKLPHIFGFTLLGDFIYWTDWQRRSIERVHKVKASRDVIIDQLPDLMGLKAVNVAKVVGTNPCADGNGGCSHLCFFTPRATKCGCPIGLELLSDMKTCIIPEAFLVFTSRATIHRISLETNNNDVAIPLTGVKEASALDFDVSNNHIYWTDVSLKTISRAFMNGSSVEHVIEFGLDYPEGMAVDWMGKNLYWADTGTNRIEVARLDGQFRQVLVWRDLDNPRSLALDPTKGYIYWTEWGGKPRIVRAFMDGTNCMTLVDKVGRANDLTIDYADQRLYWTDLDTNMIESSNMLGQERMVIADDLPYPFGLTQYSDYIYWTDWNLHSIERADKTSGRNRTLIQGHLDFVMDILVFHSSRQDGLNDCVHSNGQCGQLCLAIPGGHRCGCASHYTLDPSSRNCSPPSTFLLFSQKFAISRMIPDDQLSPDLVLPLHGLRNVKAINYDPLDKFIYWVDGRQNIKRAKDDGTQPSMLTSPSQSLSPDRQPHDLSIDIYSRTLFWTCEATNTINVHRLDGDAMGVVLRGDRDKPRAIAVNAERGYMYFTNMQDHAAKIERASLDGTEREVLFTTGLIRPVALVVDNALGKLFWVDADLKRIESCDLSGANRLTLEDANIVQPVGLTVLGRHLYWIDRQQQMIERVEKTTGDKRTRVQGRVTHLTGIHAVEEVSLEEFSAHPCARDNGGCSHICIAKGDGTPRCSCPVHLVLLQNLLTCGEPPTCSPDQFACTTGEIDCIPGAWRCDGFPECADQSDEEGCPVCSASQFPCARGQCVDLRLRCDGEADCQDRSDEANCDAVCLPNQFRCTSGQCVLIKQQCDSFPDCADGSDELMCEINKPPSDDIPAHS
The experiment in a line: single-point ELISA, coated antigen, purified Fab or IgG1, anti-kappa-HRP. As to the method:
FIGS. 1A and 1B show sixteen (16) anti-LRP antibodies. (A) The amino acid sequences of the complementarity determining regions (CDR) of the heavy (H) and the light (L) chains are presented. The antibodies were grouped into unique epitopes as determined by competitive ELISAs. (B) Single-point ELISAs were performed on 96-well Maxisorb immune plates coated with ECD's of mouse LRP5, mouse LRP6 and human LRP6 chimeras. The plates were incubated with the purified Fab or IgG1 at the concentrations indicated followed by incubation with horseradish peroxidase (HRP)-conjugated anti-kappa antibody. The wells were washed eight times followed by incubation with 3,3′,5,5′-tetramethylbenzidine/H₂O₂ peroxidase (TMB) substrate for 5-10 min. The reaction was stopped by adding 1M H₃PO₄ and the absorbance was measured spectrometrically at 450 nm in a microtiter plate reader. FIG. 1A discloses “SSVA” as SEQ ID NO: 34, and “SASSLYS” as SEQ ID NO: 35, as well as SEQ ID NOS 36-49, 51, 44, 2-4, 4, 5-7, 5, 4, 5, 8-10, 4, 52, 55, 11-16, 15, 15, 13, 17-20, 13, 53, 56, 21-23, 22, 24-33, 54, 57, respectively, in order of columns.
The full length IgG1s and the antibody fragments (Fabs) were purified and a single-point ELISA was done to determine the specificity of the antibodies. […] A multipoint competitive ELISA was used to determine the relative affinities of the antibodies to the recombinant antigen.
On the technique in general: ELISA stands for enzyme-linked immunosorbent assay.

B1: LRP5-H5 (antibody, V domains shown)
VH: EVQLVESGGGLVQPGGSLRLSCAASGFNLSYSSIHWVRQAPGKGLEWVASISSSYGSTSYADSVKGRFTISADTSKNTAYLQMNSLRAEDTAVYYCARGYWAIDYWGQGTLVTVSS
VL: DIQMTQSPSSLSASVGDRVTITCRASQSVSSAVAWYQQKPGKAPKLLIYSASSLYSGVPSRFSGSRSGTDFTLTISSLQPEDFATYYCQQPVGHYGYPITFGQGTKVEIKR
notes: Fab-phage in the screen
Take B1: the binding result is on record as “binds”.
